From paper PMC5650172, “Impact of the structural integrity of the three-way junction of adenovirus VAI RNA on PKR inhibition”

Key:
PKR (full length) = PKR (full length) (human, UniProt P19525 1-551); experiment: EMSA; 5 mM Mg2+; Kd only in figure inset; […], room temperature 10 min, […]; SEC: 50 mM Tris pH 7.5, 100 mM NaCl, 5 mM MgCl2; settings: protein: recombinant; three-way junction RNA, apical and central stem-loops
PKR1-169 (tandem dsRBMs) = PKR1-169 (tandem dsRBMs) (human, UniProt P19525 1-169); experiment: SEC co-elution, native PAGE; 5 mM Mg2+; 1.1-fold excess RNA; complex also studied by SAXS; […], room temperature 10 min, […]; SEC: 50 mM Tris pH 7.5, 100 mM NaCl, 5 mM MgCl2; settings: protein: recombinant; three-way junction RNA, apical and central stem-loops
Sequence of PKR1-169 (tandem dsRBMs) (P19525 1-169): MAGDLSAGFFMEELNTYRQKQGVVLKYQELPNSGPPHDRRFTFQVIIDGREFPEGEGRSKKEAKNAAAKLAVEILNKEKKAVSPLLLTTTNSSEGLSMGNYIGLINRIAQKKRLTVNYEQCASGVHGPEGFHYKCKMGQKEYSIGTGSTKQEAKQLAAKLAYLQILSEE

Sequence of PKR (full length) (P19525 whole entry): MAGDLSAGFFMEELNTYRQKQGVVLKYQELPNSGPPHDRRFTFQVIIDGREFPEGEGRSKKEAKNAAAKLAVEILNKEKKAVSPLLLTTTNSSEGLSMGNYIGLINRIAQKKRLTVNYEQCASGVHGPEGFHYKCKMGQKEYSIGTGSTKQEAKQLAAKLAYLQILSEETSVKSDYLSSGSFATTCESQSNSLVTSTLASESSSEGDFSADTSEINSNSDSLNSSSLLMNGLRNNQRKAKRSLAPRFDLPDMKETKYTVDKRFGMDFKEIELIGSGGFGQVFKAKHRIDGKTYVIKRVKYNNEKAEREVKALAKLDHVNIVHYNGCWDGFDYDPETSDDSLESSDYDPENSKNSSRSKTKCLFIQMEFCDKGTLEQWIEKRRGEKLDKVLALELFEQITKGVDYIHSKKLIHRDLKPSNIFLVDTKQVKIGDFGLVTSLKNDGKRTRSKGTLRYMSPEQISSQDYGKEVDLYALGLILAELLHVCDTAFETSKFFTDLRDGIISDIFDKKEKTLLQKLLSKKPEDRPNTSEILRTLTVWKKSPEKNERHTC

B1: VAI dTS (wt RNA) (structured_RNA)
RNA: GGCAAGGGUAUCAUGGCGGACGACCGGGGUUCGAACCCCGGAUCCGGCCGUCCGCCGUGAUCCAUGCGGUUACCGCCCGCGUGUCGAACCCAGGUGUGCC
binding result (PKR (full length)): binds | binding result (PKR1-169 (tandem dsRBMs)): binds
